Patent publication US20120172293A1 (Takeda / Millennium, published 2012)
Non-standard residues stand in square brackets, D forms with d. No end group written: not given here. Phe(4-NH2) = Nc1ccc(C[C@H](N)C(=O)O)cc1; 1Nal = N[C@@H](Cc1cccc2ccccc12)C(=O)O; Arg(Me) = CNC(=N)NCCC[C@H](N)C(=O)O; Ala(cPr) = N[C@@H](CC1CC1)C(=O)O; 4Pal = N[C@@H](Cc1ccncc1)C(=O)O; Cha = N[C@@H](CC1CCCCC1)C(=O)O; Phg = N[C@H](C(=O)O)c1ccccc1; 4Amb = NCc1ccc(C(=O)O)cc1; Nle = CCCC[C@H](N)C(=O)O; Aib = CC(C)(N)C(=O)O

How the values were obtained:
human Y2 receptor [1] = target: T1, human Y2 receptor (human, UniProt P49146 1-381); assay: cell-based or functional assay
T1 sequence (looked up): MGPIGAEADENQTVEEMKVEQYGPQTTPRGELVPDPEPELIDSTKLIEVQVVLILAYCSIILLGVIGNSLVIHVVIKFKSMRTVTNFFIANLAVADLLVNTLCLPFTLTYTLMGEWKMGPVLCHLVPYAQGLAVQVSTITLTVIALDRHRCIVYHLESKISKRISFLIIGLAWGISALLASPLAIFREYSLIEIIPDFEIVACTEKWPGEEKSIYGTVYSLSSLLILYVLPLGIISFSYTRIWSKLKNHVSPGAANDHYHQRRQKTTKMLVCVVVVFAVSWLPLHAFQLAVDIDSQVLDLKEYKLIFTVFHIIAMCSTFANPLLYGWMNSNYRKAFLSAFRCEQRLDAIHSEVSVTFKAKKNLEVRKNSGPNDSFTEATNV

human Y2 receptor [2] = target: T1, human Y2 receptor; assay: RBA: [125I]-PYY displacement, hY2R/CHO membranes
In short: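 Bound radioligand was collected by filtration on PEI-treated GF/C filters, washed with Tris/MgCl₂/NaCl/CHAPS buffer pH 7.4, and counted by scintillation; IC₅₀ values were calculated.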

Binder | GBA EC50 Ratio (vs PYY(3-36)), [35S]GTPγS (human Y2 receptor [1]) | IC50 Ratio (vs PYY(3-36)) (human Y2 receptor [2])
[4Amb]RA[Aib]INLITRQRY-NH2 (N-terminus assumed; SMILES CC[C@H](C)[C@H](NC(=O)[C@H](CC(C)C)NC(=O)[C@H](CC(N)=O)NC(=O)[C@@H](NC(=O)C(C)(C)NC(=O)[C@H](C)NC(=O)[C@H](CCCNC(=N)N)NC(=O)c1ccc(CN)cc1)[C@@H](C)CC)C(=O)N[C@H](C(=O)N[C@@H](CCCNC(=N)N)C(=O)N[C@@H](CCC(N)=O)C(=O)N[C@@H](CCCNC(=N)N)C(=O)N[C@@H](Cc1ccc(O)cc1)C(N)=O)[C@@H](C)O, also called compound No. 53) [4-Aminomethylbenzoyl-[Ala26, Aib27, Ile28,31]-PYY(25-36)] | 7.5 ratio | 18 ratio
[4Amb]RAYINL[Nle]TRQRY-NH2 (N-terminus assumed; SMILES CCCC[C@H](NC(=O)[C@H](CC(C)C)NC(=O)[C@H](CC(N)=O)NC(=O)[C@@H](NC(=O)[C@H](Cc1ccc(O)cc1)NC(=O)[C@H](C)NC(=O)[C@H](CCCNC(=N)N)NC(=O)c1ccc(CN)cc1)[C@@H](C)CC)C(=O)N[C@H](C(=O)N[C@@H](CCCNC(=N)N)C(=O)N[C@@H](CCC(N)=O)C(=O)N[C@@H](CCCNC(=N)N)C(=O)N[C@@H](Cc1ccc(O)cc1)C(N)=O)[C@@H](C)O, also called compound No. 42) [4-Aminomethylbenzoyl-[Ala26, Ile28, Nle31]-PYY(25-36)] | 5.7 ratio | 10 ratio
[dA]SLRAYINLITRQ[Arg(Me)]Y-NH2 (N-terminus assumed; SMILES CC[C@H](C)[C@H](NC(=O)[C@H](Cc1ccc(O)cc1)NC(=O)[C@H](C)NC(=O)[C@H](CCCNC(=N)N)NC(=O)[C@H](CC(C)C)NC(=O)[C@H](CO)NC(=O)[C@@H](C)N)C(=O)N[C@@H](CC(N)=O)C(=O)N[C@@H](CC(C)C)C(=O)N[C@H](C(=O)N[C@H](C(=O)N[C@@H](CCCNC(=N)N)C(=O)N[C@@H](CCC(N)=O)C(=O)N[C@@H](CCCNC(=N)NC)C(=O)N[C@@H](Cc1ccc(O)cc1)C(N)=O)[C@@H](C)O)[C@@H](C)CC, also called compound No. 3) [[D-Ala22, Ala26, Ile28,31, Arg(Me)35]-PYY(22-36)] | 2.7 ratio | 6 ratio
[4Amb]RA[4Pal]INLITRQRY-NH2 (N-terminus assumed; SMILES CC[C@H](C)[C@H](NC(=O)[C@H](Cc1ccncc1)NC(=O)[C@H](C)NC(=O)[C@H](CCCNC(=N)N)NC(=O)c1ccc(CN)cc1)C(=O)N[C@@H](CC(N)=O)C(=O)N[C@@H](CC(C)C)C(=O)N[C@H](C(=O)N[C@H](C(=O)N[C@@H](CCCNC(=N)N)C(=O)N[C@@H](CCC(N)=O)C(=O)N[C@@H](CCCNC(=N)N)C(=O)N[C@@H](Cc1ccc(O)cc1)C(N)=O)[C@@H](C)O)[C@@H](C)CC, also called compound No. 44) [4-Aminomethylbenzoyl-[Ala26, Pya(4)27, Ile28,31]-PYY(25-36)] | 2.6 ratio | 3.8 ratio
[4Amb]R[Ala(cPr)]YINLITRQRY-NH2 (N-terminus assumed; SMILES CC[C@H](C)[C@H](NC(=O)[C@H](Cc1ccc(O)cc1)NC(=O)[C@H](CC1CC1)NC(=O)[C@H](CCCNC(=N)N)NC(=O)c1ccc(CN)cc1)C(=O)N[C@@H](CC(N)=O)C(=O)N[C@@H](CC(C)C)C(=O)N[C@H](C(=O)N[C@H](C(=O)N[C@@H](CCCNC(=N)N)C(=O)N[C@@H](CCC(N)=O)C(=O)N[C@@H](CCCNC(=N)N)C(=O)N[C@@H](Cc1ccc(O)cc1)C(N)=O)[C@@H](C)O)[C@@H](C)CC, name prints Ile28,32; also called compound No. 48) [4-Aminomethylbenzoyl-[Ala(cPr)26, Ile28,32]-PYY(25-36)] | 4.1 ratio | 8.1 ratio
[4Amb]RAYIN[1Nal]ITRQRY-NH2 (N-terminus assumed; SMILES CC[C@H](C)[C@H](NC(=O)[C@H](Cc1ccc(O)cc1)NC(=O)[C@H](C)NC(=O)[C@H](CCCNC(=N)N)NC(=O)c1ccc(CN)cc1)C(=O)N[C@@H](CC(N)=O)C(=O)N[C@@H](Cc1cccc2ccccc12)C(=O)N[C@H](C(=O)N[C@H](C(=O)N[C@@H](CCCNC(=N)N)C(=O)N[C@@H](CCC(N)=O)C(=O)N[C@@H](CCCNC(=N)N)C(=O)N[C@@H](Cc1ccc(O)cc1)C(N)=O)[C@@H](C)O)[C@@H](C)CC, also called compound No. 55) [4-Aminomethylbenzoyl-[Ala26, Ile28,31, Nal(1)30]-PYY(25-36)] | 3 ratio | 3.4 ratio
[4Amb]RA[Phe(4-NH2)]INLITRQRY-NH2 (N-terminus assumed; SMILES CC[C@H](C)[C@H](NC(=O)[C@H](Cc1ccc(N)cc1)NC(=O)[C@H](C)NC(=O)[C@H](CCCNC(=N)N)NC(=O)c1ccc(CN)cc1)C(=O)N[C@@H](CC(N)=O)C(=O)N[C@@H](CC(C)C)C(=O)N[C@H](C(=O)N[C@H](C(=O)N[C@@H](CCCNC(=N)N)C(=O)N[C@@H](CCC(N)=O)C(=O)N[C@@H](CCCNC(=N)N)C(=O)N[C@@H](Cc1ccc(O)cc1)C(N)=O)[C@@H](C)O)[C@@H](C)CC, also called compound No. 52) [4-Aminomethylbenzoyl-[Ala26, Phe(4NH2)27, Ile28,31]-PYY(25-36)] | 5.7 ratio | 11 ratio
[4Amb]RA[Nle]INLITRQRY-NH2 (N-terminus assumed; SMILES CCCC[C@H](NC(=O)[C@H](C)NC(=O)[C@H](CCCNC(=N)N)NC(=O)c1ccc(CN)cc1)C(=O)N[C@H](C(=O)N[C@@H](CC(N)=O)C(=O)N[C@@H](CC(C)C)C(=O)N[C@H](C(=O)N[C@H](C(=O)N[C@@H](CCCNC(=N)N)C(=O)N[C@@H](CCC(N)=O)C(=O)N[C@@H](CCCNC(=N)N)C(=O)N[C@@H](Cc1ccc(O)cc1)C(N)=O)[C@@H](C)O)[C@@H](C)CC)[C@@H](C)CC, also called compound No. 43) [4-Aminomethylbenzoyl-[Ala26, Nle27, Ile28,31]-PYY(25-36)] | 2.3 ratio | 4.6 ratio
[4Amb]RAYI[Aib]LITRQRY-NH2 (N-terminus assumed; SMILES CC[C@H](C)[C@H](NC(=O)[C@H](CC(C)C)NC(=O)C(C)(C)NC(=O)[C@@H](NC(=O)[C@H](Cc1ccc(O)cc1)NC(=O)[C@H](C)NC(=O)[C@H](CCCNC(=N)N)NC(=O)c1ccc(CN)cc1)[C@@H](C)CC)C(=O)N[C@H](C(=O)N[C@@H](CCCNC(=N)N)C(=O)N[C@@H](CCC(N)=O)C(=O)N[C@@H](CCCNC(=N)N)C(=O)N[C@@H](Cc1ccc(O)cc1)C(N)=O)[C@@H](C)O, also called compound No. 46) [4-Aminomethylbenzoyl-[Ala26, Ile28,31, Aib29]-PYY(25-36)] | 34 ratio | 87 ratio
[4Amb]RAYIN[Aib]ITRQRY-NH2 (N-terminus assumed; SMILES CC[C@H](C)[C@H](NC(=O)[C@H](Cc1ccc(O)cc1)NC(=O)[C@H](C)NC(=O)[C@H](CCCNC(=N)N)NC(=O)c1ccc(CN)cc1)C(=O)N[C@@H](CC(N)=O)C(=O)NC(C)(C)C(=O)N[C@H](C(=O)N[C@H](C(=O)N[C@@H](CCCNC(=N)N)C(=O)N[C@@H](CCC(N)=O)C(=O)N[C@@H](CCCNC(=N)N)C(=O)N[C@@H](Cc1ccc(O)cc1)C(N)=O)[C@@H](C)O)[C@@H](C)CC, also called compound No. 47) [4-Aminomethylbenzoyl-[Ala26, Ile28,31, Aib30]-PYY(25-36)] | 23 ratio | 49 ratio
[4Amb]RAYINL[Phg]TRQRY-NH2 (N-terminus assumed; SMILES CC[C@H](C)[C@H](NC(=O)[C@H](Cc1ccc(O)cc1)NC(=O)[C@H](C)NC(=O)[C@H](CCCNC(=N)N)NC(=O)c1ccc(CN)cc1)C(=O)N[C@@H](CC(N)=O)C(=O)N[C@@H](CC(C)C)C(=O)N[C@H](C(=O)N[C@H](C(=O)N[C@@H](CCCNC(=N)N)C(=O)N[C@@H](CCC(N)=O)C(=O)N[C@@H](CCCNC(=N)N)C(=O)N[C@@H](Cc1ccc(O)cc1)C(N)=O)[C@@H](C)O)c1ccccc1, also called compound No. 40) [4-Aminomethylbenzoyl-[Ala26, Ile28, Phg31]-PYY(25-36)] | 27 ratio | 71 ratio
RYYASLRAYINLITRQRY-NH2 (also called compound No. 2) [[Ala26, Ile28,31]-PYY(19-36)] | 2.1 ratio | 4.9 ratio
[4Amb]KAYINLITRQRY-NH2 (N-terminus assumed; SMILES CC[C@H](C)[C@H](NC(=O)[C@H](Cc1ccc(O)cc1)NC(=O)[C@H](C)NC(=O)[C@H](CCCCN)NC(=O)c1ccc(CN)cc1)C(=O)N[C@@H](CC(N)=O)C(=O)N[C@@H](CC(C)C)C(=O)N[C@H](C(=O)N[C@H](C(=O)N[C@@H](CCCNC(=N)N)C(=O)N[C@@H](CCC(N)=O)C(=O)N[C@@H](CCCNC(=N)N)C(=O)N[C@@H](Cc1ccc(O)cc1)C(N)=O)[C@@H](C)O)[C@@H](C)CC, also called compound No. 49) [4-Aminomethylbenzoyl-[Lys25, Ala26, Ile28,31]-PYY(25-36)] | 24 ratio | 34 ratio
[4Amb]RAYINL[Cha]TRQRY-NH2 (N-terminus assumed; SMILES CC[C@H](C)[C@H](NC(=O)[C@H](Cc1ccc(O)cc1)NC(=O)[C@H](C)NC(=O)[C@H](CCCNC(=N)N)NC(=O)c1ccc(CN)cc1)C(=O)N[C@@H](CC(N)=O)C(=O)N[C@@H](CC(C)C)C(=O)N[C@@H](CC1CCCCC1)C(=O)N[C@H](C(=O)N[C@@H](CCCNC(=N)N)C(=O)N[C@@H](CCC(N)=O)C(=O)N[C@@H](CCCNC(=N)N)C(=O)N[C@@H](Cc1ccc(O)cc1)C(N)=O)[C@@H](C)O, also called compound No. 41) [4-Aminomethylbenzoyl-[Ala26, Ile28, Cha31]-PYY(25-36)] | 8.7 ratio | 15 ratio
